Laboratory results published in patent US20020091083.

Target: YB-1 (expressed from YB-1/RSV) (Homo sapiens) (UniProt P67809)
Assay: cell_activity
Settings: human glioblastoma cells

COL1A2 promoter -161 to +57 CAT binding reporter
activity (relative CAT activity) (repression, empty vector pRc/RSV = 1.0): 0.6

COL1A2 promoter -161 to +57 CAT non-binding reporter
activity (relative CAT activity) (no repression, empty vector pRc/RSV = 1.1): 1
